# Earlier results as cited in PMC10954796, “Post-translational modifications of beta-amyloid alter its transport in the blood-brain barrier in vitro model” (Frontiers in Molecular Neuroscience, 2024).
# pKd: −log10 of the molar value. Where “and” joins values, the source holds several entries; their conditions need not be identical. Equal entries are not always repeated.
# Columns and labels:
# Aβ40 1-40 (Homo sapiens) = Aβ40 1-40 (Homo sapiens) (UniProt P05067)
# [1] = target: Aβ42 oligomers 1-42 (Homo sapiens) (UniProt P05067); assay: surface plasmon resonance
# Aβ42 oligomers 1-42 (Homo sapiens), sequence (P05067 1-42): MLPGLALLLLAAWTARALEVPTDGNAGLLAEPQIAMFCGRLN
# Aβ40 1-40 (Homo sapiens), sequence (P05067 1-40): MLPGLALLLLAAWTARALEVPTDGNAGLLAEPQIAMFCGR
pKd (Aβ40 1-40 (Homo sapiens)),pKd [1],Substance
7.12 and 7.24,,RAGE (from UniProt Q15109)
,7.77,sRAGE (from UniProt Q15109)
